Assay results from patent US9272016B2, “Methods to enhance RNAi oligonucleotide delivery to respiratory epithelial cells” (University of Iowa Research Foundation, priority 2012, dated 2016).

B1: KGF: Keratinocyte growth factor, a member of the fibroblast growth factor family (protein, UniProt P21781 32-194, looked up)
Fibroblast growth factor 7: CNDMTPEQMATNVNCSSPERHTRSYDYMEGGDIRVRRLFCRTQWYLRIDKRGKVKGTQEMKNNYNIMEIRTVAVGIVAIKGVESEFYLAMNKEGKLYAKKECNEDCNFKELILENHYNTYASAKWTHNGGEMFVALNQKGIPVRGKKTKKEQKTAHFLPMAIT
B2: EGF: human Epidermal Growth Factor (Sigma-Aldrich) (protein, UniProt P01133 23-1207, looked up)
Pro-epidermal growth factor: PQHWSCPEGTLAGNGNSTCVGPAPFLIFSHGNSIFRIDTEGTNYEQLVVDAGVSVIMDFHYNEKRIYWVDLERQLLQRVFLNGSRQERVCNIEKNVSGMAINWINEEVIWSNQQEGIITVTDMKGNNSHILLSALKYPANVAVDPVERFIFWSSEVAGSLYRADLDGVGVKALLETSEKITAVSLDVLDKRLFWIQYNREGSNSLICSCDYDGGSVHISKHPTQHNLFAMSLFGDRIFYSTWKMKTIWIANKHTGKDMVRINLHSSFVPLGELKVVHPLAQPKAEDDTWEPEQKLCKLRKGNCSSTVCGQDLQSHLCMCAEGYALSRDRKYCEDVNECAFWNHGCTLGCKNTPGSYYCTCPVGFVLLPDGKRCHQLVSCPRNVSECSHDCVLTSEGPLCFCPEGSVLERDGKTCSGCSSPDNGGCSQLCVPLSPVSWECDCFPGYDLQLDEKSCAASGPQPFLLFANSQDIRHMHFDGTDYGTLLSQQMGMVYALDHDPVENKIYFAHTALKWIERANMDGSQRERLIEEGVDVPEGLAVDWIGRRFYWTDRGKSLIGRSDLNGKRSKIITKENISQPRGIAVHPMAKRLFWTDTGINPRIESSSLQGLGRLVIASSDLIWPSGITIDFLTDKLYWCDAKQSVIEMANLDGSKRRRLTQNDVGHPFAVAVFEDYVWFSDWAMPSVMRVNKRTGKDRVRLQGSMLKPSSLVVVHPLAKPGADPCLYQNGGCEHICKKRLGTAWCSCREGFMKASDGKTCLALDGHQLLAGGEVDLKNQVTPLDILSKTRVSEDNITESQHMLVAEIMVSDQDDCAPVGCSMYARCISEGEDATCQCLKGFAGDGKLCSDIDECEMGVPVCPPASSKCINTEGGYVCRCSEGYQGDGIHCLDIDECQLGEHSCGENASCTNTEGGYTCMCAGRLSEPGLICPDSTPPPHLREDDHHYSVRNSDSECPLSHDGYCLHDGVCMYIEALDKYACNCVVGYIGERCQYRDLKWWELRHAGHGQQQKVIVVAVCVVVLVMLLLLSLWGAHYYRTQKLLSKNPKNPYEESSRDVRSRRPADTEDGMSSCPQPWFVVIKEHQDLKNGGQPVAGEDGQAADGSMQPTSWRQEPQLCGMGTEQGCWIPVSSDKGSCPQVMERSFHMPSYGTQTLEGGVEKPHSLLSANPLWQQRALDPPHQMELTQ
modifications: Pro-epidermal growth factor

Experiments:
Type in all cases: cell-based
HPRT mRNA [1] = test: Pretreatment of well differentiated pig airway epithelia before HPRT siRNA transfection, qPCR; conditions: well differentiated PAE; KGF 50 ng/ml 24 h, EGTA 6 mM 30 m, LLnL 40 μM 24 hrs; then 250 nM HPRT siRNA with RNAiMAX or Transductin
Experimental: (§1) For airway epithelia that were either well or poorly differentiated, transfection was done mostly according to the manufacturer's protocol. In all cases, the apical surface of epithelia was washed twice with PBS before adding the transfection mixture to the apical surface. The mixture was then left on the cells for 24 h for all transfection reagents. For PK1 cells, reverse transfection was performed in a 48-well plate by first adding the siRNA-RNAiMAX reagent mixture onto the plate and then adding the dispersed cells (40,000 cells) on top of the mixture and allowing the cells to adhere and establish growth for 24 h. […]
(§2) Total RNA was isolated using SV96 RNA isolation kit (Promega), according to manufacturer's protocol. […] One-fifteenth of the cDNA was then amplified and analyzed by Taqman assay in the 7900 Real Time PCR System (Applied Biosystems) using synthesized primer-probe pairs (IDT, Coralville, Iowa), reaction buffer and Immolase DNA polymerase (Bioline, Taunton, Mass.). […] Absolute quantification of an mRNA target sequence within an unknown sample was determined by reference to a standard curve. […]
(§3) Wortmannin was purchased from Sigma (St. Louis, Mo.) as a ready to use solution. […]

human airway epithelia = test: Confocal imaging of DIG-labeled siRNA uptake in human airway epithelia; conditions: EGF 100 μg/ml for 15 min, imaged 2 h after transfection, vs untreated cells (data not shown)
Experimental: The primary human airway epithelia grown at air-liquid interface were transfected with the DIG-labeled siRNA at a concentration of 250 ng/ml after complexing with Transductin. The transfection mixture was left on the apical surface for 2 h. At the end of this period, the cells were fixed in 2% formaldehyde, permeabilized in 0.2% Triton-x-100 and blocked in 1% BSA for 1 h. The cells were then stained with mouse antibody to DIG (Roche Biochemicals) for 1 h followed by either Alexa 488 labeled goat anti-mouse secondary antibody for 1 h followed by Alexa 488 labeled rabbit […] antibody (Invitrogen) for 1 or in some cases with Alexa 564 goat anti-mouse secondary antibody for 1 h. The cells were finally stained with nuclear stain, ToPro 3 for 10 minutes. The filter, containing the cells, was removed from the culture insert by cutting the edges with razor blade and then mounted onto a slide by the use of Vectashield. The slide was visualized by confocal microscopy.

HPRT mRNA [2] = test: Pretreatment of well-differentiated human airway epithelia before HPRT siRNA transfection, qPCR
Experimental: as §1, §2, §3

Row | Molecule | silencing of HPRT mRNA after pretreatment (HPRT mRNA [1]) | uptake of the DIG signal (human airway epithelia) | decrease in HPRT mRNA levels (HPRT mRNA [2]; human airway cells, EGF 100 μg/ml for 15 min apically before siRNA-Transductin (250 nM), 3 donors) | siRNA uptake and knockdown (HPRT mRNA [2]; pretreatment of the mucosal surface with EGF (200 μg/ml), well differentiated cells, species not stated)
1 | B1 | did not reduce | – | – | –
2 | B2 | – | increased uptake | 15-20% | enhanced uptake and facilitated siRNA knockdown
